± gives the uncertainty stated by the source.
Test: amyloid nucleation score (Sup35N fusion, yeast selection) (log enrichment); library NNK1; higher = more nucleation; inactive = no reads after selection
In short: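 Three technical output replicates were used for random libraries. Psi-negative yeast expressing peptides of 20 random codons fused to Sup35N were induced with 100 μM copper sulfate for 24 hours and grown 7 days at 30°C on medium lacking adenine and uracil, and input and output plasmid inserts were Illumina-sequenced, excluding sequences with under 100 input reads. The nucleation score is the DiMSum log enrichment of output over input reads, centred on the mode score of non-aggregating sequences.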

NYETPGRFDKSVSTGEAFQS and NYIVLFSSRDVCTHNMYKTV are within error of each other in amyloid nucleation score: -0.868 ± 0.55 for the first, 0.342 ± 0.71 for the second.

Compared with NYLGS, NYMWSQPLLYFECGRDQWLA is higher in amyloid nucleation score: -0.481 ± 0.33 for the first, 2.92 ± 0.11 for the second.

NYSDLKRGHRLDSADGWDGI and NYSDYMWTRLANLA are within error of each other in amyloid nucleation score: -0.613 ± 1.1 for the first, -0.2 ± 0.72 for the second.

PALNRFLGTERDYDRYAGIA and PAPPAQHIYVQRVYSFCQRG are within error of each other in amyloid nucleation score: -0.8 ± 0.49 for the first, -0.161 ± 0.9 for the second.

PATMDLIVVPWITVLKEIN and PCDSICALFALSKHQVGGGW are within error of each other in amyloid nucleation score: -0.451 ± 0.89 for the first, 0.324 ± 0.55 for the second.

PCFYSSGDVVMNRGV and PCGEKD are within error of each other in amyloid nucleation score: -0.507 ± 0.26 for the first, 0.559 ± 0.9 for the second.

PCLNRLVV and PCLVGIDMVTMVAESLCGSG are within error of each other in amyloid nucleation score: 0.386 ± 0.5 for the first, -0.958 ± 1.3 for the second.

PDCLPPWSRRLLGNRVAIGL and PDSLFPLCFLRLWLISSIVR are within error of each other in amyloid nucleation score: 1.01 ± 0.57 for the first, 1.49 ± 0.84 for the second.

PECQSGCMV and PFAGNHTMWKVPTWGKSWKG are within error of each other in amyloid nucleation score: -0.163 ± 0.41 for the first, -0.398 ± 0.7 for the second.

PFCRSRHAGHSRSLQVEKFM and PFNGSLFYYVSWVKTNYGYY are within error of each other in amyloid nucleation score: -0.004 ± 0.29 for the first, 0.225 ± 0.93 for the second.

PFYNSQ and PGGSIRGFSRLSKLHWDRGE are within error of each other in amyloid nucleation score: -0.371 ± 0.41 for the first, 0.252 ± 0.4 for the second.

PGTGPVCQNGDVAF and PGTSARRIDTKDVPYPFIPS are within error of each other in amyloid nucleation score: -0.948 ± 1.7 for the first, 1.16 ± 0.51 for the second.

PHSSFPESSCKGSGSVSWAE and PIDGLPGASFGLGFQCGVGM are within error of each other in amyloid nucleation score: -0.172 ± 0.74 for the first, 0.527 ± 0.76 for the second.

Going from PILMFTVCMSDSQTVLNFCS to PINLLVLIAGNFYWLWTFGQ, the amyloid nucleation score falls from 6.56 ± 0.047 to 2.84 ± 0.15.

PIRPWAHYGMANWVQKAF and PIVMCFFGKV are within error of each other in amyloid nucleation score: -0.763 ± 0.52 for the first, -0.201 ± 0.41 for the second.

PKNGGQTMAYK and PLAHLSRLEESYWPSQTHPS are within error of each other in amyloid nucleation score: -0.665 ± 0.6 for the first, 0.091 ± 0.54 for the second.

PLDHLHLSKWCTSEKDLVV and PLEVWNRGVGPIGCVCRGLK are within error of each other in amyloid nucleation score: 0.766 ± 0.38 for the first, 1.29 ± 0.57 for the second.

PLGGLGYV and PLHWS are within error of each other in amyloid nucleation score: 0.543 ± 0.73 for the first, 0.416 ± 0.3 for the second.

PLLQKSWIRALSFFVNHTS and PLMWS are within error of each other in amyloid nucleation score: 0.126 ± 0.51 for the first, 0.251 ± 0.29 for the second.

Compared with PLRASRTMTSGKLQPNLRRK, PLSVNLKYVYNLVVDLFGLP is higher in amyloid nucleation score: 0.035 ± 0.76 for the first, 2.61 ± 0.19 for the second.

Compared with PLVGWSRYSGAIPTSVMFLA, PLWLCGGFQQWASGCRSVGL is lower in amyloid nucleation score: 4.21 ± 0.071 for the first, -1.06 ± 0.49 for the second.

First: PMAVRLSYCCNRIYVLY
Second: PMQNSTPLFYSNAWSE
The amyloid nucleation score of the first is higher: 4.47 ± 0.097 for the first, -0.096 ± 1.1 for the second.

First: PMTVSNEFAPSILLSRALFW
Second: PMYLSSVVCFSKRHMPANRG
The amyloid nucleation score of the first is higher: 3.99 ± 0.14 for the first, -0.138 ± 0.52 for the second.

PNMGREYKIGTGHYYEQFFH and PNRRCCPMVGFIWLYRVL are within error of each other in amyloid nucleation score: -0.082 ± 0.17 for the first, 0.836 ± 0.85 for the second.

PNVFFFLISMIFSDFLVGSG and PPETRTPVINRSLSIEFDPK are within error of each other in amyloid nucleation score: 0.192 ± 1.2 for the first, -0.022 ± 0.68 for the second.

PPLAYWVYPMVRTLFEGRVP and PPWPVNSDDPGHYETSSNFS are within error of each other in amyloid nucleation score: 0.754 ± 0.45 for the first, 1.29 ± 0.73 for the second.

First: PQSHQKTRTFLFMRSTSSMW
Second: PRGLP
The amyloid nucleation score of the first is lower: -0.847 ± 0.52 for the first, 0.694 ± 0.9 for the second.

PRLARMLLHDGAEYDCELSC and PRNQNMT are within error of each other in amyloid nucleation score: -0.963 ± 1.2 for the first, 0.992 ± 1 for the second.

PRRMKT and PRRQETWANEGHGM are within error of each other in amyloid nucleation score: 0.15 ± 0.33 for the first, 0.426 ± 0.93 for the second.

First: PRTNSNMIKCYIFDNAWNQL
Second: PSFMMFKSYTPQDFGMH
The amyloid nucleation score of the first is higher: 6.234 ± 0.055 for the first, -0.318 ± 0.99 for the second.

PSHLRYAAH and PSIEEEFSWVPAVFFFTWDM are within error of each other in amyloid nucleation score: -0.038 ± 0.54 for the first, -0.706 ± 1.2 for the second.

PSIHTFCTAL and PSKSVCKPCRWSGSWWGER are within error of each other in amyloid nucleation score: 0.318 ± 0.33 for the first, 0.073 ± 1.6 for the second.

PSLVQNGSQSTPVEDYIIEY and PSSIWNAMFYGYNCMYLLKT are within error of each other in amyloid nucleation score: -0.618 ± 0.65 for the first, -0.392 ± 0.34 for the second.

Compared with PSWWVMEFTWIPQNGGLLSL, PTCLSWGGVMRRDL is lower in amyloid nucleation score: 6.64 ± 0.082 for the first, 0.341 ± 0.48 for the second.

PTCQGITWMPRQLWLMGGAD and PTLMLAGG are within error of each other in amyloid nucleation score: 0.507 ± 0.6 for the first, -0.33 ± 0.46 for the second.

Compared with PTMSLIDGIVGKLMDSRVGT, PTTEWKVVRT is higher in amyloid nucleation score: -0.11 ± 0.32 for the first, 0.808 ± 0.57 for the second.

First: PTTYNYSCVGIVSFDFSESI
Second: PVCVIRRGMAFSAFGWVPLE
The amyloid nucleation score of the first is higher: 5.293 ± 0.052 for the first, 0.188 ± 0.7 for the second.

PVFGETGDY and PVGGHMVRLSSMSNSLAFKV are within error of each other in amyloid nucleation score: -0.393 ± 0.4 for the first, -0.563 ± 0.68 for the second.

PVLRAWYGRLFCRYSWLWQC and PVSSLNYLVDT are within error of each other in amyloid nucleation score: 0.274 ± 0.46 for the first, 0.395 ± 0.62 for the second.

PWCSKQEGTRMWGMYGAPGG and PWGTCQQYRYTFWPVSAC are within error of each other in amyloid nucleation score: 0.162 ± 0.62 for the first, -0.412 ± 0.92 for the second.

PWTYQHGQLASWVLGES and PYRFSYKVVESSICDNLRRR are within error of each other in amyloid nucleation score: -0.242 ± 0.33 for the first, -0.094 ± 0.35 for the second.

Going from PYRPLSGRHRVLTQYGKLVG to PYSQFANLSIYVMDMMRGIR, the amyloid nucleation score rises from 0.112 ± 0.81 to 5.562 ± 0.048.

PYWTVYGELL and QAELYPDQNRGCVGLVVPAD are within error of each other in amyloid nucleation score: 0.116 ± 0.97 for the first, -0.544 ± 0.54 for the second.

QAFSNESVTRDLLCG and QATYCGLIIPSGLIYPDYTV are within error of each other in amyloid nucleation score: -0.957 ± 0.64 for the first, -0.442 ± 0.54 for the second.

QAVGSI and QCSCSKWLAIRDWDGSSKMK are within error of each other in amyloid nucleation score: 0.031 ± 0.33 for the first, 0.082 ± 1.6 for the second.

QDITPYWIVIGYD and QDLPAISLFTDVQSKPRTFP are within error of each other in amyloid nucleation score: -0.367 ± 0.29 for the first, 0.631 ± 0.95 for the second.

QDRNVSWLYIGSVTGRRVAG and QEYRDMILKPFHRWFTMFK are within error of each other in amyloid nucleation score: 0.488 ± 0.66 for the first, 0.941 ± 0.44 for the second.

Compared with QFAHKVYPMSSCLVNVA, QFIRILDQSKILYLCCFLDT is higher in amyloid nucleation score: -0.678 ± 0.57 for the first, 5.64 ± 0.061 for the second.

QFKKVGPPLVKNLAQVRMRM and QFMMS are within error of each other in amyloid nucleation score: -0.033 ± 0.47 for the first, 0.052 ± 0.29 for the second.

Compared with QFSAIIMSLSLLWSFMCAWE, QGCIVQGAASEIEANLAQLS is higher in amyloid nucleation score: -0.217 ± 0.55 for the first, 1.08 ± 0.59 for the second.

Compared with QGKLFFLVNLYSKPQNSHYG, QGSSSGITQFGMPTYLGIIC is lower in amyloid nucleation score: 4.13 ± 0.069 for the first, 0.61 ± 0.47 for the second.

QGVGSDVTSIYTV and QGWKGSC are within error of each other in amyloid nucleation score: -0.884 ± 2.4 for the first, -0.385 ± 1.4 for the second.

QHEDISPPKLPIVNSAIPFV and QHIPGDCFYHCCQFHCAQKE are within error of each other in amyloid nucleation score: 0.335 ± 0.54 for the first, 0.818 ± 0.77 for the second.

QHRVCLHCYKM and QIFLWFGISNKDFLHFVSWS are within error of each other in amyloid nucleation score: -1.63 ± 2.7 for the first, 0.158 ± 0.57 for the second.

QIHFFAFRFIGMVYFPRIGD and QIIHGCSAGLQLT are within error of each other in amyloid nucleation score: 0.318 ± 0.79 for the first, 0.809 ± 0.47 for the second.

QISVKTMLLSLTFRMFIYWN and QKCIVLVMLLGWVFGMPVIG are within error of each other in amyloid nucleation score: -0.168 ± 0.38 for the first, 0.129 ± 0.65 for the second.

QKTASILLPVRYFWCEKSWM and QLDINN are within error of each other in amyloid nucleation score: -0.667 ± 1.5 for the first, 0.197 ± 0.52 for the second.

QLGWYLFGM and QLIHMMFYIRFMWDLGHRSL are within error of each other in amyloid nucleation score: 0.729 ± 0.4 for the first, 0.814 ± 0.36 for the second.

First: QLSYLTFFCFVP
Second: QLTLSNWLKTSAKA
The amyloid nucleation score of the first is higher: 7.183 ± 0.052 for the first, 2.5 ± 0.32 for the second.

QLTSVSIFWYPF and QMRSVYVQDTINMALIIHEL are within error of each other in amyloid nucleation score: -1.46 ± 2.4 for the first, 0.617 ± 0.27 for the second.

With QMTKNYEWDSTRIACVGLHR the amyloid nucleation score was 2.68 ± 0.11.

For NYVPIWSGA, the amyloid nucleation score was “inactive”.
In the case of PDRDYFLFFTLHCVCSSFAE, the amyloid nucleation score is reported as “inactive”.
For PFIDNRFKLFRSDGTVRWVI, the amyloid nucleation score was “inactive”.
With PFVYGLCESFPFGCQYGWGC the amyloid nucleation score was “inactive”.
With PTFNSAQTRSISYIKTDYLE the amyloid nucleation score was “inactive”.
With PVKNRYTHR the amyloid nucleation score was “inactive”.

From the supplement of paper PMC12042874
